Results as given in patent US20050282743A1, “Molecular interactions in cells” (Arbor Vita Corporation, priority 2001, published 2005).

Assays:
Test in all cases: G assay titration, PDZ 5 ug/ml
[1] = target: T1, GST-MINT1 PDZ domain 1 (Mus musculus (Mouse)), B2RUJ5
T1 chain: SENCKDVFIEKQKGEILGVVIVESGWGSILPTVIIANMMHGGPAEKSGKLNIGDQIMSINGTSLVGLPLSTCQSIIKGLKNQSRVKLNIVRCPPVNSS

[2] = target: T2, GST-MUPP1 PDZ domain 7 (Homo sapiens (Human)), O75970
T2 chain: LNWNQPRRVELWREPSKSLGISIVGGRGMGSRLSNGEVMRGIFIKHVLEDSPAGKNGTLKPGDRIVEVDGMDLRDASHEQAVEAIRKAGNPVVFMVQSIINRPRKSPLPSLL

[3] = target: T3, GST-FLJ00011 PDZ domain 1 (Homo sapiens (Human)), Q9H5P4
T3 chain: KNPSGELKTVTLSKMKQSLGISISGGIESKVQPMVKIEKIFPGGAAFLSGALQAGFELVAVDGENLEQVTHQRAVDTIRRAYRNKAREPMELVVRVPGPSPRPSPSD

[4] = target: T4, GST-SITAC-18 PDZ domain 2 (Homo sapiens (Human)), Q9H190
T4 chain: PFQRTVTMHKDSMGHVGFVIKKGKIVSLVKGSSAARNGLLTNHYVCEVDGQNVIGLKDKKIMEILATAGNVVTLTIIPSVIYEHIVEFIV

[5] = target: T5, GST-SITAC-18 PDZ domain 1 (Homo sapiens (Human)), Q9H190
T5 chain: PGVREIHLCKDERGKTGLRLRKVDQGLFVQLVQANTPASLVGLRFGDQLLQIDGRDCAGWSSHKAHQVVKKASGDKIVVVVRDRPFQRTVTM

[6] = target: T6, GST-KIAA1526 PDZ domain 1 (Homo sapiens (Human)), Q9P202
T6 chain: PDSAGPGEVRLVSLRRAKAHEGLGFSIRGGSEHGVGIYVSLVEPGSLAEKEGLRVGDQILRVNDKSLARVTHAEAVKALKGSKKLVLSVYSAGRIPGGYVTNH

[7] = target: T7, GST-MINT1 PDZ domain 2 (Mus musculus (Mouse)), B2RUJ5
T7 chain: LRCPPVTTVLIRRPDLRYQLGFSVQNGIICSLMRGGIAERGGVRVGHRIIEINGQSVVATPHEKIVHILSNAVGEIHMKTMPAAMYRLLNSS

[8] = target: T8, GST-ZO-1 PDZ domain 1 (Rattus norvegicus (Rat)), A0A0G2
T8 chain: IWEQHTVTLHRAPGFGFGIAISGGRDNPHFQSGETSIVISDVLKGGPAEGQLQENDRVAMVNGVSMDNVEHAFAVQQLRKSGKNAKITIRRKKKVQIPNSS

[9] = target: T9, GST-NeDLG PDZ domain 2 (Rattus norvegicus (Rat)), Q62936
T9 chain: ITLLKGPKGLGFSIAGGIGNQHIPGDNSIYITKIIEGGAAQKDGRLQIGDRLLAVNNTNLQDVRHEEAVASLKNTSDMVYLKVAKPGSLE

[10] = target: T10, GST-HEMBA 1003117 PDZ domain 1 (Homo sapiens (Human)), Q96JH8
T10 chain: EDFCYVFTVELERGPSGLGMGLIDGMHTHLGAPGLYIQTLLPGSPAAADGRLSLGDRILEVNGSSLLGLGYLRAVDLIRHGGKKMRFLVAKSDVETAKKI

[11] = target: GST-KIAA1634 PDZ domain 4 (Homo sapiens (Human)), Q5TCQ9
Sequence of GST-KIAA1634 PDZ domain 4 (Homo sapiens (Human)), Q5TCQ9 (Q5TCQ9 844-945): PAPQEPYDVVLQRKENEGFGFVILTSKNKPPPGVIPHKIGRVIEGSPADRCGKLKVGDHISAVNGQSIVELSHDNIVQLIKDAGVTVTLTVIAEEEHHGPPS

[12] = target: GST-Atrophin-1 Interacting Protein PDZ domain 3 (Rattus norvegicus (Rat)), O88382
Sequence of GST-Atrophin-1 Interacting Protein PDZ domain 3 (Rattus norvegicus (Rat)), O88382 (O88382 774-865, tags or fused parts left off): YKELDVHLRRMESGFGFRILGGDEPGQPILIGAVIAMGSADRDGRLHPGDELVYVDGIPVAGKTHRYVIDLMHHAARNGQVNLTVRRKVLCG

[13] = target: T11, GST-PTPL1 PDZ domain 2 (Homo sapiens (Human)), Q12923
T11 chain: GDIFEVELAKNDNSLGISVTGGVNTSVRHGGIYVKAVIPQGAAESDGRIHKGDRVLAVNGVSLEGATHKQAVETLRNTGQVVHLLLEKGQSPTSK

[14] = target: T12, GST-MUPP1 PDZ domain 11 (Homo sapiens (Human)), O75970
T12 chain: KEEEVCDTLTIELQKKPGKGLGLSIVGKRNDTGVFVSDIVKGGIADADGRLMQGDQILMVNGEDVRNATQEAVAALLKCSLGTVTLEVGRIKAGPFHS

[15] = target: T13, GST-Outer Membrane PDZ domain 1 (Homo sapiens (Human)), P57105
T13 chain: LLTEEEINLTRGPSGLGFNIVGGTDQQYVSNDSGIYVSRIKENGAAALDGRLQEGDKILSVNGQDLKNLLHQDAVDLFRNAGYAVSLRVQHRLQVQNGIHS

[16] = target: T14, GST-KIAA0807(S) PDZ domain 1 (Homo sapiens (Human)), Q6P0Q8
T14 chain: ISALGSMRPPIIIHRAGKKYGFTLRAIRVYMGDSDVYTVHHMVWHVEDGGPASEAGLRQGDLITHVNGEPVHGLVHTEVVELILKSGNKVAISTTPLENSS

[17] = target: GST-TAX IP2 PDZ domain 1 [GST: P08515]
Sequence of GST-TAX IP2 PDZ domain 1 [GST: P08515] (P08515 whole entry, the tested form may be a part): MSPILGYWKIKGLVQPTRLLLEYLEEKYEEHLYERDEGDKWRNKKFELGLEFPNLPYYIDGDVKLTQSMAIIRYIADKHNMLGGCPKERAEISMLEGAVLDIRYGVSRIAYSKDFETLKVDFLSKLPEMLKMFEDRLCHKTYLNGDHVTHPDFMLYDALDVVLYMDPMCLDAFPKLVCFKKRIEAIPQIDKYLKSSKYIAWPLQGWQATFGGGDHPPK

[18] = target: T15, GST-MINT1 PDZ domains 1, 2, Q02410
T15 chain: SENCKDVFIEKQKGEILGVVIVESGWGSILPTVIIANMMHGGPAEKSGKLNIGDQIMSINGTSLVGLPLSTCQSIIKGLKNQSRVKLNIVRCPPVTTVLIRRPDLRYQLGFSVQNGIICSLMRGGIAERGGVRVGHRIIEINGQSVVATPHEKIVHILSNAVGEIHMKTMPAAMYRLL

KTMPAAMYRLLTAQEQPVYI (modifications not checked) [MINT-1]
Kd [1]: 2000 nM | Kd [2]: 1500 nM

AWDDSARAAGGQGLHVTAL (modifications not checked) [LPAP]
Kd [3]: 1500 nM

ILNSIQVMRAQMNQIQSVEV (modifications not checked) [ephrin B2]
Kd [4]: 5000 nM | Kd [5]: 4000 nM | Kd [6]: 5000 nM | Kd [7]: 3000 nM | Kd [8]: 6000 nM

VGTLLLERVIFPSVKIATLV (modifications not checked) [AdenoE4 typ9]
Kd [9]: 100 nM | Kd [10]: 300 nM | Kd [11]: 200 nM | Kd [12]: 100 nM | Kd [13]: 200 nM | Kd [14]: 100 nM | Kd [15]: 100 nM | Kd [16]: 200 nM

VPGALDYAAFSSALYGESDL (modifications not checked) [a-actinin 2]
Kd [17]: 2500 nM

PIPAGGCTFSGIFPTLTSPL (modifications not checked) [KIA 1481]
Kd [18]: 800 nM
